# Measurements as given in patent publication US20240239875A1 (published 2024).
# Where a chain is given by its changes, count along the chain named.
# B1: 1-B11-A (antibody, V domains shown)
# VH: QVQLQQSGPELVKPGASVKISCKASGYTFTDHYINWVKQRPGQGLEWIGWIFPGSGSTYYNEQFKGKATLTVDKSSNTAYMLLSSLTSEDSAVYFCARSGGLRLGFAYWGQGTLVTVSA
# VL: DIQMTQTTSSLSASLGDRVTISCRASQDISNYLNWYQQKPDGTVKLLIYYTSRLHSGVPSRFSGSGSGTDYSLTISNLEQEDISTYFCQQVNTLPYTFGGGTKLEIK
# B2: 9-F6-A (antibody, V domains shown)
# VH: EVQLQQSGPELVKPGASVKMSCKASGYTFTSYIMHWVKQKPGQGLEWIGYILPYNDGTKYNEKFKGKATLTSDKSSSTAYMELRSLTSEDSAVYYCARWGYSNFLDSWGQGTTLTVSS
# VL: B1 VL with S30N, S76R, S84A, V91G, Y96P
# B3: 7-D7-A (antibody, V domains shown)
# VH: QVQLKESGPGLVAPSQSLSITCTVSGFSLTSYAISWVRQPPGKGLEWLGVIWPGGGTNYNSALKSRLSISKDNSKSQVFLKMNSLQTDDTAKYYCARTGYYFDYWGQGTTLTVSS
# VL: QLILTQSPAIMSASPGEKVTMTCSASLSVNYMYWFQQKPGTSPKRWIHDTSKLASGVPARFSGSGSGTSYSLTISSMEAEDAATYYCQQWSSNPPMYTFGGGTKLEIK
# B4: 8-A17-A (antibody, V domains shown)
# VH: B3 VH with I51V, S70N, A91G, K92R, Y101H
# VL: B3 VL with L2I, I3V, A25V, L27S, N30S, Y33H, F35Y, P39S, H48Y
# B5: 1-L10-A (antibody, V domains shown)
# VH: EVKLEESGGGLVQPGGSMKLSCVASGFTFNNYWMNWVRQSPEKGLEWVAQMRLKSDNYATHYAESVKGRFTISRDDSKSSVYLQMNNLRAEDTGIYYCIEGYWTYWGQGTLVTVSA
# VL: QIVLTQSPAIMSASLGERVTMTCTASSSVSSSYLHWYQQKPGSSPKLWIYSTSNLASGVPARFSGNGSGTSYSLTISSMEAEDAATYYCLQYHRSPPYTFGGGTKLEIK
# B6: 6-O12-A (antibody, V domains shown)
# VH: QVQLQQPGTELVKPGASVKLSCKASGYTFTSYWMHWVKQRPGQGLEWIGNINPSNGGTNYNEKFRSKATLTVDKSSSTAYMQLSSLTSEDSAVYYCARLGWFLPLGSWGQGTTLTVSS
# VL: QIVLTQSPAIMSASLGEVITLTCSASSSVSYMHWYQQKSGTSPKLLIYSTSNLASGVPSRFSGSGSGTFYSLTISSVEAEDAADYYCHQWSGYMYTFGGGTKLEIK
# B7: 2-G20-A (antibody, V domains shown)
# VH: EVQLQQSGPELVKPGASVKMSCKASGYTFPSYVLHWVKQKPGQGLEWIGYIYPYNDGTNYNEKFKGKATLTSDKSSSTAYMELSSLTSEDSAVYYCARGDYGDSAWFPYWGQGTLVTVSA
# VL: DIVLTQSPASLAVSLGQRATISCRASKSVSTSGYSYMHWYQQKPGQPPKLLIYLASNLKSGVPARFSGGGSGTDFTLNIHPVEEEDAATYYCQLSRELPWTFGGGTKLEIK
# Biological target: T1, SARS-CoV-2 prefusion stabilized trimer protein (WIV02 isolate spike protein) (UniProt P0DTC2 14-1213)
# Assay: ELISA
row,Binder,EC50
1,B1,10300 pM

# Biological target: SARS-CoV-2 S2 domain (UniProt P0DTC2 686-1213)
# Assay: ELISA
row,Binder,EC50
1,B1,6620 pM

# Biological target: SARS-CoV-1 spike protein (SARS-CoV-1, UniProt P59594 14-1195)
# Assay: ELISA
row,Binder,EC50
1,B2,460 pM
2,B1,550 pM
3,B3,3050 pM
4,B4,360 pM
5,B5,5270 pM
6,B6,240 pM
7,B7,1440 pM

# Biological target: T2, MERS spike protein (MERS-CoV, UniProt K9N5Q8 18-1296)
# T2 chain: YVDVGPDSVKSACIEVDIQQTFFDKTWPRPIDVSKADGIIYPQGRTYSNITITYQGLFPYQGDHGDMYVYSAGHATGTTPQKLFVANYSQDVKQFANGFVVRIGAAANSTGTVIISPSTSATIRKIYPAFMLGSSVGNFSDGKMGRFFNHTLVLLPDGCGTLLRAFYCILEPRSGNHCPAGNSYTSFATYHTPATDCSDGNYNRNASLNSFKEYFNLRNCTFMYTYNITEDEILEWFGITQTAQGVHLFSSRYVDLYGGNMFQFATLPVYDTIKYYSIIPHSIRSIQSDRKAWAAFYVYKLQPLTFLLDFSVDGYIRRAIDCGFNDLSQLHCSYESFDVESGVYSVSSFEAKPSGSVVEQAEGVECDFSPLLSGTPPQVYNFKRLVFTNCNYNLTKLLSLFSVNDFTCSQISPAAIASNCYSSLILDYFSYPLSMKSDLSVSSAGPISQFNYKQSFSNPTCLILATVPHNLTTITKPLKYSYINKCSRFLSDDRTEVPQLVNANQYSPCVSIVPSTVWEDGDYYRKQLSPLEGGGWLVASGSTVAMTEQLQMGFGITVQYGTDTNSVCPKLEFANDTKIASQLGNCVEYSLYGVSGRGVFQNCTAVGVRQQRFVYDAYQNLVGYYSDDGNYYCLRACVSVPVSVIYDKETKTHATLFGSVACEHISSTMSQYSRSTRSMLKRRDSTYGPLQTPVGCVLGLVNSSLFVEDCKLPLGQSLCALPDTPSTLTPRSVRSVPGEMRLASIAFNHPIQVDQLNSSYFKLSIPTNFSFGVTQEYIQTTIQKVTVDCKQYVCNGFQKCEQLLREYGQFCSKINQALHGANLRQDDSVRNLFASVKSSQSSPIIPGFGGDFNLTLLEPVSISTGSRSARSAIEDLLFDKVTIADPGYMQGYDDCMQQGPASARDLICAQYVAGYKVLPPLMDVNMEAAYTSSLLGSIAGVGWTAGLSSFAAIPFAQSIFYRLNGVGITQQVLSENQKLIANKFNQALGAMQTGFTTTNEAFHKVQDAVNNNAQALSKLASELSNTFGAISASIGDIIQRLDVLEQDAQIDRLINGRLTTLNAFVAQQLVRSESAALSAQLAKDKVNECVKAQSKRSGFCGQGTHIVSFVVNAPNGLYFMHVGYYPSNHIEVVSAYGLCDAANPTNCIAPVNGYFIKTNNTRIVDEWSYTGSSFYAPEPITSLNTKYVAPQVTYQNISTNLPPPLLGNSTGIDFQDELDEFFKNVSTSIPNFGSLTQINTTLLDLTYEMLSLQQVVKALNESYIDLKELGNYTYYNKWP
# Assay: ELISA
row,Binder,EC50
1,B2,1670 pM
2,B1,630 pM
3,B3,900 pM
4,B4,490 pM
5,B5,3470 pM
6,B6,250 pM
7,B7,8710 pM

# Biological target: T1, SARS-CoV-2 prefusion stabilized trimer …
# Assay: ELISA
# Remark: another data set of the same source
row,Binder,EC50
1,B2,590 pM
2,B1,10700 pM
3,B3,720 pM
4,B4,270 pM
5,B5,111000 pM
6,B6,390 pM
7,B7,1830 pM

# Biological target: T3, HCoV229E spike protein (HCoV-229E, UniProt P15423 17-1103)
# T3 chain: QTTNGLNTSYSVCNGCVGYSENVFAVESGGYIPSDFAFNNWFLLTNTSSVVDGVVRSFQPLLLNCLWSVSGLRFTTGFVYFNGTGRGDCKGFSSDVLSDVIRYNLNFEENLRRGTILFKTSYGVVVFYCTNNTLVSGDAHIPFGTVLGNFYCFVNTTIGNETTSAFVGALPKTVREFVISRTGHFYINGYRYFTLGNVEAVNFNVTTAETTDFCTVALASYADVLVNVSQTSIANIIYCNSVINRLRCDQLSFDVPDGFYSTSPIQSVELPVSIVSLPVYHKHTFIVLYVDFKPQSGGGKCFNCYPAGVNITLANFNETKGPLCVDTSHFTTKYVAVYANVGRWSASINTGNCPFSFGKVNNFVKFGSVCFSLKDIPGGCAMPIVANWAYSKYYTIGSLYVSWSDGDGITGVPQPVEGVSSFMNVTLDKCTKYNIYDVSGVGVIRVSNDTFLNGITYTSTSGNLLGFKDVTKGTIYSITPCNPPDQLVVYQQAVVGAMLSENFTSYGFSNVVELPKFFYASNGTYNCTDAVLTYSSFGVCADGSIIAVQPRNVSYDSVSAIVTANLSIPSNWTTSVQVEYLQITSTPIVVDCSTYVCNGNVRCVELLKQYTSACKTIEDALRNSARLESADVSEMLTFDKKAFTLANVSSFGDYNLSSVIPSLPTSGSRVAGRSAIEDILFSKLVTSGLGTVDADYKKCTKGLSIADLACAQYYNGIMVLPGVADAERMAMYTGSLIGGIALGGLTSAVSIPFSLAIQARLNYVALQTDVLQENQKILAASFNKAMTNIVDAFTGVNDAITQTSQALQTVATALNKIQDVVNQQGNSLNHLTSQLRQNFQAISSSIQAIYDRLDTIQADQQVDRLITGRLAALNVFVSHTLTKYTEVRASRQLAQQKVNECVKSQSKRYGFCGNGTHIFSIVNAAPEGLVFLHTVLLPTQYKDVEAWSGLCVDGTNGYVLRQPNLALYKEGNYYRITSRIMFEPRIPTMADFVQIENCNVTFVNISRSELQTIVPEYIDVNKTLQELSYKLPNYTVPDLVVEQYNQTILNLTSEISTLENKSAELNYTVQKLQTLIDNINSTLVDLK
# Assay: ELISA
row,Binder,EC50
1,B2,30 pM
2,B3,130 pM
3,B4,10 pM
4,B5,120 pM
5,B6,150 pM
6,B7,100 pM
